According to the Human Domainome abundance scans (Beltran et al. 2025):
± gives the uncertainty stated by the source.

B1: Zinc finger homeobox protein 3, residues 2147 to 2202; numbered along this chain, Q15911 (parent)
chain: RPRTRITDDQLRVLRQYFDINNSPSEEQIKEMADKSGLPQKVIKHWFRNTLFKERQ

Variants of: B1
Experiment: abundance fitness (aPCA) (normalised: wild type 0, dead -1); higher = more abundant; growth selection in yeast, the domain comes from the species named
Settings: Homo sapiens

Row | Variant | abundance fitness
1 | RPRTRITDDQLRVLRQYFDINNSQSEEQIKEMADKSGLPQKVIKHWFRNTLFKERQ [P24Q] | -0.747 ± 0.11
2 | RPRTRITDDQLRVLRQYFDINNLPSEEQIKEMADKSGLPQKVIKHWFRNTLFKERQ [S23L] | -0.149 ± 0.087
3 | RPRTRITDDQLRVLRQYFDIINSPSEEQIKEMADKSGLPQKVIKHWFRNTLFKERQ [N21I] | -0.276 ± 0.13
4 | RPRTRITDDQLRVLRQYFDINNSPSEEQIKEMADKSGLPQKVIKHWFRNALFKERQ [T50A] | -0.11 ± 0.1
5 | RPRTRITDDQLRVLRQYFDINNSPSEEQIKEMADKLGLPQKVIKHWFRNTLFKERQ [S36L] | 0.019 ± 0.073
6 | RPRTRITDDQLRVLRQYFDINNSPSEEQIKEMADKSGLPQKVIKHWPRNTLFKERQ [F47P] | -0.912 ± 0.16
7 | RPRTRITDDQLRVLRQYFDINNSPSEEQIKEMACKSGLPQKVIKHWFRNTLFKERQ [D34C] | -0.039 ± 0.1
8 | RPRTRITDDQLRVLRQYFDINNSPSEEQIKEMADKSGLPQKVIKHWFRNTLFKDRQ [E54D] | 0.046 ± 0.18
9 | RPRTRITDDQLRVLRQYHDINNSPSEEQIKEMADKSGLPQKVIKHWFRNTLFKERQ [F18H] | -0.259 ± 0.14
10 | RPRTRITDDQLRVLRQYFDINNSPSEEQIKEMADKSGLPQKVIKHWFRNTEFKERQ [L51E] | -0.116 ± 0.1
11 | RPRTRITDDQLRVLRQYFDINNSPSEEQIKEMADKSGLPQKSIKHWFRNTLFKERQ [V42S] | -0.139 ± 0.09
12 | RPRTRITDDQLRVLRQYFDINNSPSAEQIKEMADKSGLPQKVIKHWFRNTLFKERQ [E26A] | -0.043 ± 0.073
13 | RPRTRITDDQHRVLRQYFDINNSPSEEQIKEMADKSGLPQKVIKHWFRNTLFKERQ [L11H] | -0.399 ± 0.13
14 | RPRTRITDDQLRVLRQLFDINNSPSEEQIKEMADKSGLPQKVIKHWFRNTLFKERQ [Y17L] | -0.133 ± 0.067
15 | RPRTRDTDDQLRVLRQYFDINNSPSEEQIKEMADKSGLPQKVIKHWFRNTLFKERQ [I6D] | -0.484 ± 0.12
16 | RPRTRITDDQLRVLRQYFDINNSPSEEQIKEMKDKSGLPQKVIKHWFRNTLFKERQ [A33K] | -0.357 ± 0.2
17 | RPRTRITDDQLRVLRQYFDINNSPSEEQIKEMADKSGLPQKVIKHWFRLTLFKERQ [N49L] | -0.117 ± 0.098
18 | RPRTRITDDQLRVLRQYFDINNSPSMEQIKEMADKSGLPQKVIKHWFRNTLFKERQ [E26M] | -0.133 ± 0.11
19 | RPRTRITDDQLRVLRQYMDINNSPSEEQIKEMADKSGLPQKVIKHWFRNTLFKERQ [F18M] | -0.15 ± 0.1
20 | RPRTRITDDQLRVLRQYFWINNSPSEEQIKEMADKSGLPQKVIKHWFRNTLFKERQ [D19W] | -0.131 ± 0.076
21 | RPRTRITDDQLRVLRQYFDINNSPSEEQIKEMADKSGLPQKVIKHWSRNTLFKERQ [F47S] | -0.632 ± 0.093
22 | RPRTRITDDNLRVLRQYFDINNSPSEEQIKEMADKSGLPQKVIKHWFRNTLFKERQ [Q10N] | -0.477 ± 0.13
23 | RPRTRITDDQLRVLRQYFDINNSPSEEQIKEMADKSGLPQKHIKHWFRNTLFKERQ [V42H] | -0.374 ± 0.19
24 | RPRTRITDDQLRVLRWYFDINNSPSEEQIKEMADKSGLPQKVIKHWFRNTLFKERQ [Q16W] | -0.09 ± 0.075

Row | Variant | abundance fitness
25 | RPRTRITDDQLRVLRQYFDINNSPSEEQGKEMADKSGLPQKVIKHWFRNTLFKERQ [I29G] | -0.827 ± 0.082
26 | RPRTRITDDQLRVLRQYFDIWNSPSEEQIKEMADKSGLPQKVIKHWFRNTLFKERQ [N21W] | -0.38 ± 0.12
27 | RPRTRITDDQLRVLRQYFDINNSPSEEQIKEMADKSGLLQKVIKHWFRNTLFKERQ [P39L] | -0.329 ± 0.078
28 | RPRTRITDLQLRVLRQYFDINNSPSEEQIKEMADKSGLPQKVIKHWFRNTLFKERQ [D9L] | -0.106 ± 0.072
29 | RPRTRITDDQLRVLRQYFDINNSPSEEQIKEMADKSGLPQKVIKHWFRNTLFKEEQ [R55E] | -0.173 ± 0.11
30 | RPRTRITDDQLRVLRQYFDINNSPSEEQIKEMADKSGLPQKVIKHWLRNTLFKERQ [F47L] | -0.211 ± 0.09
31 | RPHTRITDDQLRVLRQYFDINNSPSEEQIKEMADKSGLPQKVIKHWFRNTLFKERQ [R3H] | 0.172 ± 0.15
32 | RPRTRITDIQLRVLRQYFDINNSPSEEQIKEMADKSGLPQKVIKHWFRNTLFKERQ [D9I] | -0.176 ± 0.11
33 | RARTRITDDQLRVLRQYFDINNSPSEEQIKEMADKSGLPQKVIKHWFRNTLFKERQ [P2A] | -0.134 ± 0.1
34 | RPRTRITDDQLMVLRQYFDINNSPSEEQIKEMADKSGLPQKVIKHWFRNTLFKERQ [R12M] | 0.077 ± 0.083
35 | RPRTRVTDDQLRVLRQYFDINNSPSEEQIKEMADKSGLPQKVIKHWFRNTLFKERQ [I6V] | -0.084 ± 0.072
36 | RPRTRITDDQLRVLRQYFDINNSPSEEQIKEMADKSGLPQKVIKHWFRPTLFKERQ [N49P] | -0.65 ± 0.19
37 | RPRTSITDDQLRVLRQYFDINNSPSEEQIKEMADKSGLPQKVIKHWFRNTLFKERQ [R5S] | 0.088 ± 0.065
38 | RPRTRITDDQLRVLRQYFDINNSVSEEQIKEMADKSGLPQKVIKHWFRNTLFKERQ [P24V] | -0.413 ± 0.072
39 | RPRTRITDDQLRVLRQYFDINNSPSEEQIKEMADKSGLPQKVIKHWFRNTLLKERQ [F52L] | 0.026 ± 0.086
40 | RPRTRITDDQLRVLRQYFDINNSPSEEQIKEMADKSGLYQKVIKHWFRNTLFKERQ [P39Y] | -0.284 ± 0.34
41 | RPRTRITDDHLRVLRQYFDINNSPSEEQIKEMADKSGLPQKVIKHWFRNTLFKERQ [Q10H] | 0.025 ± 0.13
42 | RPRTRITDDQLRVLRQYFDINMSPSEEQIKEMADKSGLPQKVIKHWFRNTLFKERQ [N22M] | 0.038 ± 0.097
43 | RPRTRITDDQLRCLRQYFDINNSPSEEQIKEMADKSGLPQKVIKHWFRNTLFKERQ [V13C] | -0.149 ± 0.075
44 | RPRTRITDDQLRVLRQYFDINNSPSEEQIAEMADKSGLPQKVIKHWFRNTLFKERQ [K30A] | -0.006 ± 0.081
45 | RPRTRITDDQLRVLRQYFDINNSPSEEQIKEMADESGLPQKVIKHWFRNTLFKERQ [K35E] | -0.168 ± 0.11
46 | RPRTRITDDQLRVLRQYADINNSPSEEQIKEMADKSGLPQKVIKHWFRNTLFKERQ [F18A] | -0.187 ± 0.073
47 | RPRTRITDDQLRVLRQYFDINNSPSEEQIKEMADKSGRPQKVIKHWFRNTLFKERQ [L38R] | -0.971 ± 0.077
